According to FireProtDB:
“And” between values parts separate entries of the source, which are not always exact repeats. Identical values can stand only once.

Settings: whole UniProt chain shown
[1] = Pectobacterium carotovorum, pH 7.4, Thermal, DSC, CGH-10, reversible: no
[2] = Lithobates pipiens, pH 6, 25 °C, GdnHCl, DSC, MES 100 mM, reversible: yes
[3] = Oryza sativa subsp. japonica, pH 7, Thermal, DSC, Potassium phosphate buffer, NaCl, reversible: yes
[4] = Mus musculus, pH 7.2, 25 °C, Urea, Fluorescence, Sodium phosphate 20 mM, Sodium chloride 100 mM, reversible: Yes
[5] = Paracoccus pantotrophus, pH 7, 25 °C, Urea, CD, Sodium phosphate 20 mM, Na2SO4 0.5 M, reversible: yes
[6] = Locusta migratoria, pH 3, 20 °C, Thermal, NMR, Unknown
[7] = Locusta migratoria, pH 7, 25 °C, GdnHCl, CD, Sodium phosphate 50 mM, KCl 100 mM, reversible: yes
[8] = Ovis aries, pH 7, 25 °C, GdnHCl, CD, HEPES 20 mM, reversible: yes
[9] = Ovis aries, pH 7, 25 °C, GdnHCl, Fluorescence, HEPES 20 mM, reversible: yes
[10] = Homo sapiens, pH 7.5, 23 °C, GdnHCl, Fluorescence, Tris-HCl 50 mM, reversible: yes
[11] = Hydrogenobacter thermophilus (strain DSM 6534 / IAM 12695 / TK-6), pH 7, Thermal, CD, KH2PO4-NaOH 10 mM, reversible: yes

B1: Pectate lyase wild type, Q47471 (protein)
chain: MFKYLTPIFLCTAAFSFQAQADDTMLMLLKKDNATYLSWSTDAGNVVRQDVYRSTSNNQAGSEKIAELNSTDRTFTDLTANPKSDYWYWVDTVSSNNNVQKSNAAQTAPAPLRAAPLKAASSECKAGAVIKDKTVDCGGITLGLSCTGDSDKQPPVITLENATIKNLRISEKGGSDGIHCKSGNCRIENVIWEDVCEDAATNLGKTMTIVGGVAHNTTNGPGGKPDKVLQQNAKNSHTIVQGNFTLTGQHGKLWRSCGDCTNNGGPRNLTIISATVNGTIDSIAGVNRNFGDVAEIRDLRIKNYKAGNPKICEEFKGIEKGKGKTEKYGEFWDSKNCKVSRSNVKAL
- unfolding free energy (Pectobacterium carotovorum, pH 7.4, 25 °C, GdnHCl, DSC, CGH-10, reversible: no): 8.7 kcal/mol
- Tm [1]: 81.1 °C
- unfolding enthalpy (calorimetric) [1]: 102 kcal/mol

B2: Protein P-30 wild type, P22069 (protein)
chain: QDWLTFQKKHITNTRDVDCDNIMSTNLFHCKDKNTFIYSRPEPVKAICKGIIASKNVLTTSEFYLSDCNVTSRPCKYKLKKSTNKFCVTCENQAPVHFVGVGSC
- denaturant m value [2]: 3.08 kcal/mol/M
- denaturant midpoint (higher = more stable) [2]: 4.5 M
- unfolding free energy [2]: 13.9 kcal/mol

B3: Amicyanin wild type, P22364 (protein)
chain: MISATKIRSCLAACVLAAFGATGALADKATIPSESPFAAAEVADGAIVVDIAKMKYETPELHVKVGDTVTWINREAMPHNVHFVAGVLGEAALKGPMMKKEQAYSLTFTEAGTYDYHCTPHPFMRGKVVVE
- Tm (Paracoccus denitrificans, pH 7.5, Thermal, CD, Potassium Phosphate Buffer 100 mM): 60 °C and 55 °C
- Tm (Paracoccus denitrificans, pH 7.5, Thermal, absorbance, Potassium Phosphate Buffer 10 mM): 66.4 °C

B4: Subtilisin Savinase wild type, P29600 (protein)
chain: AQSVPWGISRVQAPAAHNRGLTGSGVKVAVLDTGISTHPDLNIRGGASFVPGEPSTQDGNGHGTHVAGTIAALNNSIGVLGVAPSAELYAVKVLGASGSGSVSSIAQGLEWAGNNGMHVANLSLGSPSPSATLEQAVNSATSRGVLVVAASGNSGAGSISYPARYANAMAVGATDQNNNRASFSQYGAGLDIVAPGVNVQSTYPGSTYASLNGTSMATPHVAGAAALVKQKNPSWSNVQIRNHLKNTATSLGSTNLYGSGLVNAEAATR
- Tm (Lederbergia lenta, pH 8.8, Thermal, CD, Tris buffer 100 mM, reversible: No): 77.2 °C and 79.2 °C
- Tm (Lederbergia lenta, pH 9, Thermal, DSC, boric acid 100 mM, CaCl2 2 mM): 72.7 °C and 75.5 °C

B5: Protein CutA 1, chloroplastic wild type, Q109R6 (protein)
chain: MPLLPSPLGSLSAAATAAPRRAAAAAGLSPLLLRRRAPIAGALLFLSLGAFAGVRSLSSSASARMESTSTTVPSIVVYVTVPNKEAGKRLAGSIISEKLAACVNIVPGIESVYWWEGKVQTDAEELLIIKTRESLLDALTEHVKANHEYDVPEVIALPIKGGNLKYLEWLKNSTRES
- Tm [3]: 97.3 °C
- unfolding enthalpy (calorimetric) [3]: 347 kcal/mol
- unfolding free energy [3]: 0.79 kcal/mol
- denaturant midpoint (higher = more stable) (Oryza sativa subsp. japonica, pH 8, 37 °C, GdnHCl, CD, Tris-HCl buffer, NaCl, transition: 2, reversible: yes): 2.3 M

B6: Cyanovirin-N wild type, P81180 (protein)
chain: LGKFSQTCYNSAIQGSVLTSTCERTNGGYNTSSIDLNSVIENVDGSLKWQPSNFIETCRNTQLAGSSELAAECKTRAQQFVSTKINLDDHIANIDGTLKYE
- Tm (Nostoc ellipsosporum, pH 6, Thermal, CD, Sodium phosphate 10 mM): 48.5 °C

B7: Adapter molecule crk wild type, Q64010 (protein)
chain: MAGNFDSEERSSWYWGRLSRQEAVALLQGQRHGVFLVRDSSTSPGDYVLSVSENSRVSHYIINSSGPRPPVPPSPAQPPPGVSPSRLRIGDQEFDSLPALLEFYKIHYLDTTTLIEPVARSRQGSGVILRQEEAEYVRALFDFNGNDEEDLPFKKGDILRIRDKPEEQWWNAEDSEGKRGMIPVPYVEKYRPASASVSALIGGNQEGSHPQPLGGPEPGPYAQPSVNTPLPNLQNGPIYARVIQKRVPNAYDKTALALEVGELVKVTKINVSGQWEGECNGKRGHFPFTHVRLLDQQNPDEDFS
- denaturant m value [4]: 0.66 kcal/mol/M
- unfolding free energy [4]: 3.33 kcal/mol

B8: wild type, Q88HV5 (protein)
chain: MPFQQGLLATPVPAHARHLFFTLQSPEALPAALDALLPQVDGKQLLLGVGAPLAKALGREIPGLRPFPLLDAAVENPSTQHALWLWLRGDERGDLLLRTQALEQALAPALSLADSVDGFLHRGGHDLTGYEDGTENPTDEEAVQAAIAADGSSFAAFQLWKHDLQYFKSLPQADQDNIIGRRLSDNEELDDAPASAHVKRTAQESFEPEAFMVRRSVSWADQRGAGLAFVALGKSFEAFEVQLRRMSGLEDGIIDGLYRFSRPLTGGYYWCPPMSETGVDLSPLLRA
- Tm (Pseudomonas putida (strain ATCC 47054 / DSM 6125 / CFBP 8728 / NCIMB 11950 / KT2440), pH 7.6, Fluorescence spectroscopy): 65 °C

B9: Thymidylate synthase wild type, P00469 (protein)
chain: MLEQPYLDLAKKVLDEGHFKPDRTHTGTYSIFGHQMRFDLSKGFPLLTTKKVPFGLIKSELLWFLHGDTNIRFLLQHRNHIWDEWAFEKWVKSDEYHGPDMTDFGHRSQKDPEFAAVYHEEMAKFDDRVLHDDAFAAKYGDLGLVYGSQWRAWHTSKGDTIDQLGDVIEQIKTHPYSRRLIVSAWNPEDVPTMALPPCHTLYQFYVNDGKLSLQLYQRSADIFLGVPFNIASYALLTHLVAHECGLEVGEFIHTFGDAHLYVNHLDQIKEQLSRTPRPAPTLQLNPDKHDIFDFDMKDIKLLNYDPYPAIKAPVAV
- unfolding free energy (Lacticaseibacillus casei, pH 7, 4 °C, Urea, CD, KHPO4 20 mM, KCl 0.5 M, reversible: yes): 19.1 kcal/mol

B10: SNARE-associated protein Snapin wild type, O95295 (protein)
chain: MAGAGSAAVSGAGTPVAGPTGRDLFAEGLLEFLRPAVQQLDSHVHAVRESQVELREQIDNLATELCRINEDQKVALDLDPYVKKLLNARRRVVLVNNILQNAQERLRRLNHSVAKETARRRAMLDSGIYPPGSPGK
- Tm (Homo sapiens, pH 7.4, Thermal, CD, Tris 50 mM): 57.9 °C

B11: Pseudoazurin wild type, P80401 (protein)
chain: MFHHSLAAAAAALLALAAPGFAATHEVHMLNKGESGAMVFEPAFVRAEPGDVINFVPTDKSHNVEAIKEILPEGVESFKSKINESYTLTVTEPGLYGVKCTPHFGMGMVGLVQVGDAPENLDAAKTAKMPKKARERMDAELAQVN
- denaturant m value [5]: 1.87 kcal/mol/M
- unfolding free energy [5]: 6.88 kcal/mol

B12: Protease inhibitors wild type, P80060 (protein)
chain: MKFALALCAAVLLVVLVQAEEKCTPGQVKQQDCNTCTCTPTGVWGCTRKGCQPAKREISCEPGKTFKDKCNTCRCGADGKSAACTLKACPNQ
- unfolding enthalpy (van 't Hoff) [6]: 19.3 kcal/mol
- unfolding free energy [6]: 1.1 kcal/mol

B13: Endo-1,4-beta-xylanase 2 wild type, P36217 (protein)
chain: MVSFTSLLAGVAAISGVLAAPAAEVESVAVEKRQTIQPGTGYNNGYFYSYWNDGHGGVTYTNGPGGQFSVNWSNSGNFVGGKGWQPGTKNKVINFSGSYNPNGNSYLSVYGWSRNPLIEYYIVENFGTYNPSTGATKLGEVTSDGSVYDIYRTQRVNQPSIIGTATFYQYWSVRRNHRSSGSVNTANHFNAWAQQGLTLGTMDYQIVAVEGYFSSGSASITVS
- Tm (Hypocrea jecorina (strain ATCC 56765 / BCRC 32924 / NRRL 11460 / Rut C-30), pH 5, Thermal, DSC, citrate - phosphate buffer 50 mM): 61.4 °C

B14: Granulocyte-macrophage colony-stimulating factor wild type, P01587 (protein)
chain: MWLQNLLFLGIVVYSLSAPTRSPITVTRPWKHVEAIKEALNLLDDMPVTLNEEVEVVSNEFSFKKLTCVQTRLKIFEQGLRGNFTKLKGALNMTASYYQTYCPPTPETDCETQVTTYADFIDSLKTFLTDIPFECKKPGQK
- unfolding free energy (Mus musculus, pH 9, 4 °C, Urea, CD, Tris-glycine 50 mM, reversible: yes): 5.78 kcal/mol

B15: Apolipophorin-3b wild type, P10762 (protein)
chain: MNTLLAVLMLAVAAQARPDAAGHVNIAEAVQQLNHTIVNAAHELHETLGLPTPDEALNLLTEQANAFKTKIAEVTTSLKQEAEKHQGSVAEQLNRFARNLNNSIHDAATSAQPADQLNSLQSALTNVGHQWQTSQPRPSVAQEAWAPVQSALQEAAEKTKEAAANLQNSIQSAVQKPAN
- denaturant m value [7]: 3.46 kcal/mol/M and 4.33 kcal/mol/M
- denaturant midpoint (higher = more stable) [7]: 0.6 M and 0.27 M

B16: Pyridoxal kinase wild type, P82197 (protein)
chain: MEEECRVLSIQSHVVRGYVGNRAATFPLQVLGFEVDAVNSVQFSNHTGYSHWKGQVLNSDELQELYDGLKLNHVNQYDYVLTGYTRDKSFLAMVVDIVQELKQQNPRLVYVCDPVMGDQRNGEGAMYVPDDLLPVYREKVVPVADIITPNQFEAELLTGRKIHSQEEALEVMDMLHSMGPDTVVITSSNLLSPRGSDYLMALGSQRTRAPDGSVVTQRIRMEMHKVDAVFVGTGDLFAAMLLAWTHKHPNNLKVACEKTVSAMHHVLQRTIKCAKAKSGEGVKPSPAQLELRMVQSKKDIESPEIVVQATVL
- denaturant m value [8]: 2.41 kcal/mol/M
- unfolding free energy [8]: 1.55 kcal/mol
- denaturant m value [9]: 2.9 kcal/mol/M
- unfolding free energy [9]: 1.5 kcal/mol

B17: Persulfide dioxygenase ETHE1, mitochondrial wild type, O95571 (protein)
chain: MAEAVLRVARRQLSQRGGSGAPILLRQMFEPVSCTFTYLLGDRESREAVLIDPVLETAPRDAQLIKELGLRLLYAVNTHCHADHITGSGLLRSLLPGCQSVISRLSGAQADLHIEDGDSIRFGRFALETRASPGHTPGCVTFVLNDHSMAFTGDALLIRGCGRTDFQQGCAKTLYHSVHEKIFTLPGDCLIYPAHDYHGFTVSTVEEERTLNPRLTLSCEEFVKIMGNLNLPKPQQIDFAVPANMRCGVQTPTA
- Tm (Homo sapiens, pH 7.5, Thermal, CD, Tris-HCl 50mM, NaCl 150mM, transition: 2): 62 °C

B18: wild type, Q96HL2 (protein)
chain: MTKLRAQQCRFWTSFFPKVLEMTGNIDEAEWEWKAGFHRWNNYMMDWKNQFNDYTSKKESCVGL
- Tm (Homo sapiens, pH 8, Thermal, DSC, sodium phosphate 50 mM): 62.8 °C

B19: Tissue factor wild type, P13726 (protein)
chain: METPAWPRVPRPETAVARTLLLGWVFAQVAGASGTTNTVAAYNLTWKSTNFKTILEWEPKPVNQVYTVQISTKSGDWKSKCFYTTDTECDLTDEIVKDVKQTYLARVFSYPAGNVESTGSAGEPLYENSPEFTPYLETNLGQPTIQSFEQVGTKVNVTVEDERTLVRRNNTFLSLRDVFGKDLIYTLYYWKSSSSGKKTAKTNTNEFLIDVDKGENYCFSVQAVIPSRTVNRKSTDSPVECMGQEKGEFREIFYIIGAVVFVVIILVIILAISLHKCRKAGVGQSWKENSPLNVS
- denaturant midpoint (higher = more stable) [10]: 1.35 M
- unfolding free energy [10]: 6.3 kcal/mol

B20: Cytochrome c-552 wild type, P15452 (protein)
chain: MKKFLLVAVVGLAGITFANEQLAKQKGCMACHDLKAKKVGPAYADVAKKYAGRKDAVDYLAGKIKKGGSGVWGSVPMPPQNVTDAEAKQLAQWILSIK
- Tm [11]: 90 °C
- unfolding enthalpy (van 't Hoff) [11]: 83.5 kcal/mol
